Values belong to the binder of their own block, whether it stands above or below them.
What was measured:
human 5T4 antigen [1] = biological target: T1, human 5T4 antigen (human, UniProt Q13641 32-355, limits assumed); assay: BIACORE (SPR); human 5T4 antigen immobilized on CM5 chip
T1 sequence: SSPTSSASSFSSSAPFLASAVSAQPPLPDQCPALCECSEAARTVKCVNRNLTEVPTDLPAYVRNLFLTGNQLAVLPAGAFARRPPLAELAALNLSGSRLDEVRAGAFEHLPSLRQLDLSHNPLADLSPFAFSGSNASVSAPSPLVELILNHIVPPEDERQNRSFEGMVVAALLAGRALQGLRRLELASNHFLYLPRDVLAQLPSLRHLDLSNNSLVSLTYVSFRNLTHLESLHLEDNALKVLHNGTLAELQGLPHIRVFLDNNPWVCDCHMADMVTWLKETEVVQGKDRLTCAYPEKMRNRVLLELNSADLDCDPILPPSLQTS
Procedure: To assess the binding specificity and affinity of the A1, A2, and A3 antibodies, BIACORE® analysis was performed using human 5T4 antigen immobilized on a CM5 chip. BIACORE® technology utilizes changes in the refractive index at the surface layer upon binding of the antibody to the 5T4 antigen immobilized on the layer. Binding is detected by surface plasmon resonance (SPR) of laser light refracting from the surface. Analysis of the signal kinetics on rate and off rate allows discrimination between non-specific and specific interactions. The H8 anti-5T4 antibody was used as a control. H8 is a hybridoma-generated monoclonal mouse IgG1 antibody described in PCT International Publication No. WO 98/55607 and in Forsberg et al. (1997) J. Biol. Chem. 272(19):[…].
To assess the binding specificity and affinity of the chimeric and humanized H8, A1, A2, and A3 antibodies, BIACORE® analysis was performed using human 5T4 antigen immobilized on a CM5 chip. See Example 2.

human 5T4 antigen [2] = biological target: T1, human 5T4 antigen; assay: BIACORE; human 5T4 chip saturated with first antibody humanized H8 (competitor); 37.5 s after injection of second antibody
human 5T4 antigen [3] = biological target: T1, human 5T4 antigen; assay: ELISA; inhibition of biotinylated chimeric A1 antibody binding to human 5T4
human 5T4 antigen [4] = biological target: T1, human 5T4 antigen; assay: BIACORE; human 5T4 chip saturated with first antibody humanized H8 (competitor); 600 s after injection of second antibody
human 5T4 antigen [5] = biological target: T1, human 5T4 antigen; assay: BIACORE; human 5T4 chip saturated with first antibody humanized H8 (competitor); 19 s after injection of second antibody
[6] = biological target: T2, cynomologous monkey 5T4 ectodomain Fc (cynomologous monkey; human, UniProt Q4R8Y9 32-355); assay: ELISA; 5T4 ectodomain/Fc fusion protein from transiently transfected COS-1 cells; given as ED50
T2 construct: not shown: Fc constant regions from human IgG1
T2 chain: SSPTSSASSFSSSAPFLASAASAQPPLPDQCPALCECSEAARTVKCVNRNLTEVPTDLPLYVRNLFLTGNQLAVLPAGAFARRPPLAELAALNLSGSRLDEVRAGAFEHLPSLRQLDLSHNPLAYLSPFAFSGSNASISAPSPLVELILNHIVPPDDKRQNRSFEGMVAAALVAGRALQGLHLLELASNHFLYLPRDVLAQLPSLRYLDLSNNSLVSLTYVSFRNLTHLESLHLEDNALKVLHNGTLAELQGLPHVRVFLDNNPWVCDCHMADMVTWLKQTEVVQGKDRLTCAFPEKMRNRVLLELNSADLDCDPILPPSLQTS
Procedure: (§1) To assay binding of anti-5T4 antibodies, 5T4 ectodomain/Fc fusion proteins were transiently transfected into COS-1 cells, and ELISA assays were performed. Non-relevant human IgG4 and IgG1 antibodies were used as controls.

[7] = biological target: T3, black-tailed marmoset 5T4 ectodomain Fc (black-tailed marmoset; human, UniProt Q13641 32-355); assay: as above
T3 construct: not shown: Fc constant regions from human IgG1
T3 chain: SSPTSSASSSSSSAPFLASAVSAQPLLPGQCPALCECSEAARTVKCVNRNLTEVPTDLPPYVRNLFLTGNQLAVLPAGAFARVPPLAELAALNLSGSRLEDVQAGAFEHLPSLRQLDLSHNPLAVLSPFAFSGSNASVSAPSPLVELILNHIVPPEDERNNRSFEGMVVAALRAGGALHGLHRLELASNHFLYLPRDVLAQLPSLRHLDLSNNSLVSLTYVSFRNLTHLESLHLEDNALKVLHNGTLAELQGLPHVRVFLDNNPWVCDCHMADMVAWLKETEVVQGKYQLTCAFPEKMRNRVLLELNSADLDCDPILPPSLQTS
Procedure: as §1

human 5T4 ectodomain Fc = biological target: T4, human 5T4 ectodomain Fc (human, UniProt Q13641 32-355); assay: as above
T4 construct: also called human 5T4 ectodomain Fc fusion protein; Human 5T4 Ectodomain/Fc Fusion; not shown: Fc constant regions from human IgG1
T4 sequence: T1 sequence
Procedure: as §1

[8] = biological target: chimpanzee 5T4 ectodomain Fc (chimpanzee; human, UniProt P01857 99-330 = IgG part); assay: as above
Procedure: as §1

human 5T4 antigen [9] = biological target: T1, human 5T4 antigen; assay: BIACORE; human 5T4 chip saturated with first antibody humanized H8 (competitor); 300 s after injection of second antibody
human 5T4 antigen [10] = biological target: T1, human 5T4 antigen; assay: BIACORE; human 5T4 chip saturated with first antibody humanized H8 (competitor); 75 s after injection of second antibody
human 5T4 antigen [11] = biological target: T1, human 5T4 antigen; assay: BIACORE; human 5T4 chip saturated with first antibody humanized H8 (competitor); 150 s after injection of second antibody
[12] = biological target: T5, human 5T4 antigen expressed on cells (PC14PE6 cells; MDAMB435/5T4 cells) (human, UniProt Q13641 32-420); assay: cell-based or functional assay
T5 sequence: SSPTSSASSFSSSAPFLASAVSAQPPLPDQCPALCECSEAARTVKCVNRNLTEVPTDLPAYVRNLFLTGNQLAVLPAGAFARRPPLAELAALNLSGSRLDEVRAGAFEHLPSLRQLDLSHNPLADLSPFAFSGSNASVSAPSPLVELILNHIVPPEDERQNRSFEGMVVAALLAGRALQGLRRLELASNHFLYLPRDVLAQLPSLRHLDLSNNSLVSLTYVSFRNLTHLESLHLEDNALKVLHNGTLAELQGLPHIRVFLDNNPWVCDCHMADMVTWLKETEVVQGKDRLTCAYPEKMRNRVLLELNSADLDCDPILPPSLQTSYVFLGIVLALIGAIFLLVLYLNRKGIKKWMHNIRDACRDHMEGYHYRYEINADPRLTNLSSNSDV

Ka (human 5T4 antigen [1]): 2.3e+09 M⁻¹ | Kd (human 5T4 antigen [1]): 440 pM | koff (human 5T4 antigen [1]): 6.7e-05 s⁻¹ | kon (human 5T4 antigen [1]): 150000 M⁻¹ s⁻¹ | percentage of second antibody bound following saturation with first antibody (human 5T4 antigen [2]): 92.4% | IC50 (human 5T4 antigen [3]): 16000 to 20000 pM | percentage of second antibody bound following saturation with first antibody (human 5T4 antigen [4]): 98.7% | percentage of second antibody bound following saturation with first antibody (human 5T4 antigen [5]): 92.7% | EC50 [6]: 180 pM | EC50 [7]: 240 pM | EC50 (human 5T4 ectodomain Fc): 280 pM | EC50 [8]: 270 pM | percentage of second antibody bound following saturation with first antibody (human 5T4 antigen [9]): 97.3% | percentage of second antibody bound following saturation with first antibody (human 5T4 antigen [10]): 93.8% | percentage of second antibody bound following saturation with first antibody (human 5T4 antigen [11]): 95.8%
B1: chimeric A1 antibody (antibody, V domains shown)
VH: QIQLVQSGPELKKPGETVKISCKASGYTFTNFGMNWVKQGPGEGLKWMGWINTNTGEPRYAEEFKGRCAFSLETTASTAYLQINNLKNEDTATYFCARDWDGAYFFDYWGQGTTLTVSS
VL: SIVMTQTPKFLLVSAGDRVTITCKASQSVSNDVAWYQQKPGQSPKLLINFATNRYTGVPNRFTGSGYGTDFTFTISTVQAEDLALYFCQQDYSSPWTFGGGTKLEIK
modifications: Biotinylated when used as the labelled competitor in Table 13; the site is not stated.
notes: also called ChiA1; ChiA1 γ4

Fold CalichDMH, MTS assay, MDAMB435/5T4 cells [12]: 0.13 fold
B2: A2-AcBut-CalichDMH, A2 antibody conjugated to calicheamicin using 4-(4'-acetylphenoxy)butanoic acid (AcBut) (other)
VH: QVQLQQSRPELVKPGASVKMSCKASGYTFTDYVISWVKQRTGQGLEWIGEIYPGSNSIYYNEKFKGRATLTADKSSSTAYMQLSSLTSEDSAVYFCAMGGNYGFDYWGQGTTLTVSS
VL: QIVLTQSPAIMSASLGERVTLTCTASSSVNSNYLHWYQQKPGSSPKLWIYSTSNLASGVPARFSGSGSGTSYSLTISSMEAEDAATYYCHQYHRSPLTFGAGTKLELK
modifications: calicheamicin (CalichDMH) conjugated to the antibody through the AcBut linker; residues carrying it not stated

Ka (human 5T4 antigen [1]): 5.7e+08 M⁻¹ | Kd (human 5T4 antigen [1]): 1800 pM | koff (human 5T4 antigen [1]): 0.00025 s⁻¹ | kon (human 5T4 antigen [1]): 140000 M⁻¹ s⁻¹ | percentage of second antibody bound following saturation with first antibody (human 5T4 antigen [2]): 84.7% | percentage of second antibody bound following saturation with first antibody (human 5T4 antigen [4]): 96.7% | percentage of second antibody bound following saturation with first antibody (human 5T4 antigen [5]): 86.9% | EC50 [6]: 180 pM | EC50 [7]: 220 pM | EC50 (human 5T4 ectodomain Fc): 210 pM | EC50 [8]: 220 pM | percentage of second antibody bound following saturation with first antibody (human 5T4 antigen [9]): 93.7% | percentage of second antibody bound following saturation with first antibody (human 5T4 antigen [10]): 86.9% | percentage of second antibody bound following saturation with first antibody (human 5T4 antigen [11]): 90.5%
B3: chimeric A2 antibody (antibody, human IgG4, V domains shown)
VH: B2 VH
VL: B2 VL
notes: also called ChiA2; ChiA2 γ4

Source: patent publication US20160185859A1 (Pfizer, published 2016)
